Results reported in patent US20140223591A1.

B1: SMI41 ascites IgG (antibody, V domains shown)
VH: QVTLKESGPGILRPSQTLDLTCSFSGFSLSTSGLSVGWIRQPSGKGLEWLAHIWWDDVKYFNPSLKSRLTISKDSSRNQVFLKITSVDTADSATYHCTRGPLGHGFDYWGQGTLVTVSA
VL: DVVMTQTPLSLPVSLGDQAFISCRSSQSLVHSDGNSYLHWYLQKPGQSPKLLIYKVSNRFSGVPDRFSGSGSGTDFTLKISRVEAEDLGLYFCSQTTHVPWTFGGGTKLEIK
B2: SMI41-HEK293T-IgG (antibody, V domains shown)
VH: B1 VH
VL: DVVMTQTPLSLPVSLGDQAFISCRSSQSLVHSDGNSYLHWYLQKPGQSPKLLIYKVSNRFSGVPDRFSGSGSGTDFTLKISRVEAEDLGLYFCSQTTHVPWTFGGGTKLEIKR
B3: HB-9094-HEK293T-IgG (antibody, V domains shown)
VH: QIQLVQSGPELKKPGETVKISCKASGYPFTNYGMNWVKQAPGKGLKWMGWINTYTGEPACADDFRGRFAISLETSARTAYLQINNLINEDTATYFCARTGGGRYNYGMDYWGQGTSVTVSS
VL: QIVLTQSPAIMSASPGEKVTITCSATSSVSYIHWFQQKPGTSPKLWIYSTSNLASGVPVRFSGSGSGTSYSLTISRMEAEDAATYYCQQRSSYPPTFGGGTKLEIKR

Columns and labels:
[1] = target: Gonadotrophin releasing hormone 1 (GnRH1) (UniProt P01148); assay: SPR
[2] = target: Gonadotrophin releasing hormone 1 (GnRH1) (UniProt P01148); assay: SPR, Biacore T200; antibody captured on goat anti-mouse IgG on a CM5 chip, GnRH injected in 2-fold dilutions from 1024 nM
[3] = target: Gonadotrophin releasing hormone 1 (GnRH1) (UniProt P01148); assay: SPR (Biacore T200): antibody captured on goat anti-mouse IgG immobilized on a CM5 chip, GnRH injected in 2-fold dilutions from 1024 nM

Row | Binder | Kd [1] [pM] | koff [1] [s⁻¹] | kon [1] [M⁻¹ s⁻¹] | Kd [2] [pM] | koff [2] [s⁻¹] | kon [2] [M⁻¹ s⁻¹] | Kd [3] [pM]
1 | B1 | 819 | 0.00467 | 8.99e+06 |  |  |  | 
2 | B2 | 592 | 0.00282 | 4.76e+06 | 592 | 0.00282 | 4.76e+06 | 
3 | B3 | 918 | 0.000249 | 272000 | 918 | 0.000249 | 272000 | 270
